B1: purified human PSA (shorter isoform) (enzyme, UniProt P55786-1 45-919, looked up)
chain: MPEKRPFERLPADVSPINYSLCLKPDLLDFTFEGKLEAAAQVRQATNQIVMNCADIDIITASYAPEGDEEIHATGFNYQNEDEKVTLSFPSTLQTGTGTLKIDFVGELNDKMKGFYRSKYTTPSGEVRYAAVTQFEATDARRAFPCWDEPAIKATFDISLVVPKDRVALSNMNVIDRKPYPDDENLVEVKFARTPVMSTYLVAFVVGEYDFVETRSKDGVCVRVYTPVGKAEQGKFALEVAAKTLPFYKDYFNVPYPLPKIDLIAIADFAAGAMENWGLVTYRETALLIDPKNSCSSSRQWVALVVGHELAHQWFGNLVTMEWWTHLWLNEGFASWIEYLCVDHCFPEYDIWTQFVSADYTRAQELDALDNSHPIEVSVGHPSEVDEIFDAISYSKGASVIRMLHDYIGDKDFKKGMNMYLTKFQQKNAATEDLWESLENASGKPIAAVMNTWTKQMGFPLIYVEAEQVEDDRLLRLSQKKFCAGGSYVGEDCPQWMVPITISTSEDPNQAKLKILMDKPEMNVVLKNVKPDQWVKLNLGTVGFYRTQYSSAMLESLLPGIRDLSLPPVDRLGLQNDLFSLARAGIISTVEVLKVMEAFVNEPNYTVWSDLSCNLGILSTLLSHTDFYEEIQEFVKDVFSPIGERLGWDPKPGEGHLDALLRGLVLGKLGKAGHKATLEEARRRFKDHVEGKQILSADLRSPVYLTVLKHGDGTTLDIMLKLHKQADMQEEKNRIERVLGATLLPDLIQKVLTFALSEEVRPQDTVSVIGGVAGGSKHGRKAAWKFIKDNWEELYNRYQGGFLISRLIKLSVEGFAVDKMAGEVKAFFESHPAPSAERTIQQCCENILLNAAWLKRDAESIHQYLLQRKASPPTV
B2: purified human SWELL1 (homo-hexamer) (natural protein)
chain: MIPVTELRYFADTQPAYRILKPWWDVFTDYISIVMLMIAVFGGTLQVTQDKMICLPCKWVTKDSCNDSFRGWAAPGPEPTYPNSTILPTPDTGPTGIKYDLDRHQYNYVDAVCYENRLHWFAKYFPYLVLLHTLIFLACSNFWFKFPRTSSKLEHFVSILLKCFDSPWTTRALSETVVEESDPKPAFSKMNGSMDKKSSTVSEDVEATVPMLQRTKSRIEQGIVDRSETGVLDKKEGEQAKALFEKVKKFRTHVEEGDIVYRLYMRQTIIKVIKFILIICYTVYYVHNIKFDVDCTVDIESLTGYRTYRCAHPLATLFKILASFYISLVIFYGLICMYTLWWMLRRSLKKYSFESIREESSYSDIPDVKNDFAFMLHLIDQYDPLYSKRFAVFLSEVSENKLRQLNLNNEWTLDKLRQRLTKNAQDKLELHLFMLSGIPDTVFDLVELEVLKLELIPDVTIPPSIAQLTGLKELWLYHTAAKIEAPALAFLRENLRALHIKFTDIKEIPLWIYSLKTLEELHLTGNLSAENNRYIVIDGLRELKRLKVLRLKSNLSKLPQVVTDVGVHLQKLSINNEGTKLIVLNSLKKMANLTELELIRCDLERIPHSIFSLHNLQEIDLKDNNLKTIEEIISFQHLHRLTCLKLWYNHIAYIPIQIGNLTNLERLYLNRNKIEKIPTQLFYCRKLRYLDLSHNNLTFLPADIGLLQNLQNLAITANRIETLPPELFQCRKLRALHLGNNVLQSLPSRVGELTNLTQIELRGNRLECLPVELGECPLLKRSGLVVEEDLFNTLPPEVKERLWRADKEQA

Assay in all cases: cryo-EM structure
Data set [1] has as its target B2.
The target in data set [2] is B1.
The data set “cryo-EM structure” deals with the molecule itself.

A word on the stoichiometry N: it is a count of units in the complex or per binding partner.

For the molecule B1, the “stoichiometry N” value in data set [1] is 3 PSA molecules per SWELL1 hexamer.

For B2, the binding result in data set [2] is listed as “binds”. Moreover, in “cryo-EM structure”, the “stoichiometry N” value came to 6.

(Values after PMC12698191 (Molecular cell, 2025).)
